Target: T1, SARS-CoV-2 Wuhan-Hu-1 S-HexaPro-D614G, displayed on HEK293T cells (SARS-CoV-2 Wuhan-Hu-1 with D614G …, UniProt A0A6N0C4S6, D614G)
T1 construct: also called WT (HexaPro-D614G); prefusion stabilized SARS-CoV-2 S D614G
Experiment: flow cytometry on cells
Settings: one partner purified

B1: A7V3 IgG (antibody, V domains shown)
VH: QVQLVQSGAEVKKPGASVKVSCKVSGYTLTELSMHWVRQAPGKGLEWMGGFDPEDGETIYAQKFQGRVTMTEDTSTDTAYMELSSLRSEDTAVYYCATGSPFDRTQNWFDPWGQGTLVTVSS
VL: QSVVTQPPSVSAAPGQKVTISCSGSSSNIGNNYVSWYQQLPGTAPKLLIYDNNKRPSGIPDRFSGSKSGTSATLGITGLQTGDEADYYCGTWDSSLSAVVFGGGTKLTVL
notes: also called mAb A7V3
B1: binds.
